# Measurements from US20250250357A1 (NANJING ZAIMING PHARMACEUTICAL, published 2025).
# Where a chain is given by its changes, count along the chain named.
# T1: monkey MSLN full-length protein (NCBI: XP_028696439.1) expressed on HEK293T-monkey MSLN cells (monkey)
# T1 construct: Whole encoded precursor
# T1 chain: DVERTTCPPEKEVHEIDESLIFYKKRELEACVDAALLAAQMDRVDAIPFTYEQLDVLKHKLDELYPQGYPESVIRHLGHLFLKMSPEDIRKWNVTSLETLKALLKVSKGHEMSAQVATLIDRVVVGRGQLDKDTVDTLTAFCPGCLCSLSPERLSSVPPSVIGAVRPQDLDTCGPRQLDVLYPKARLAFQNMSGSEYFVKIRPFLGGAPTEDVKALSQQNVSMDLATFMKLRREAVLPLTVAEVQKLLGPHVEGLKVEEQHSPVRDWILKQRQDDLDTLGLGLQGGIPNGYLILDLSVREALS
# B1: S009-F3.74.20 (antibody, human IgG1, kappa, V domains shown)
# VH: RVQLQQSGAELVRPGASVTLSCKASGYTFTDSEMHWVKQTPVHGLEWIGAIDPEIDGTAYNQNFRDKAILTADKSSSTAYMELRSLTSEDSAVYYCTTYFGSGYGYFDVWGTGTTVTVSS
# VL: DVVMTQTPLSLSVSLGDQASISCRSSQSLVYSNGNTYLHWFLQKPGQSPKLLIYKVSNRFSGVPDRFSGSGSGTDFTLKINRVEAEDLGVYFCSQSTHIPFTFGAGTKLELKR
# notes: human-murine chimeric antibody, human IgG1/kappa constant regions
# B2: S009-F3-63.5 (antibody, human IgG1, kappa, V domains shown)
# VH: QVQLQQSGAELVRPGASVTLSCKASGYTFTDYEMHWVKQTPVHGLEWIGGIDPETGDTAYNQQFKGKAILTADRSSSTAYMELRSLTSEDSAVYYCTNYASSREDYWGQGTTLTVSS
# VL: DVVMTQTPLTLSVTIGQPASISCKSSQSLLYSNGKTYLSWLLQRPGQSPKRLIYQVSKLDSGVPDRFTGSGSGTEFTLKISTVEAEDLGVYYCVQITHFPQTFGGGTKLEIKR
# notes: as for B1
# B3: S009-F3.45.21 (antibody, human IgG1, kappa, V domains shown)
# VH: DVQLQESGPGLVKPSQSLSLTCSVTGDSITSGYYWNWIRQFPGNKLEWMGFIRFDGTNNYNPSLKNRISITRDTSKNQFFLKLNSVTTEDTATYYCAREGSYAPAWFAYWGQGTLVTVSA
# VL: QIVLTQSPAIMSASPGEKVTMTCSASSSLSYMYWYQQKPGSSPRLLIYDTSNLASGVPVRFSGSGSGTSYSLTISRMEAEDAATYYCQQWSSYPPTFGGGTKLEIKR
# notes: as for B1
# B4: S009-F3.51.8 (antibody, human IgG1, kappa, V domains shown)
# VH: QVQLQQSGAELVRPGASVTLSCKASGYTFTDYEMHWVKQTPVHGLEWIGGFDPETGGTAHNQKFKGKAILTADKSSSTAYMELRSLTSEDSAVYYCSNYGSIWGDCWGQGTSVTVSS
# VL: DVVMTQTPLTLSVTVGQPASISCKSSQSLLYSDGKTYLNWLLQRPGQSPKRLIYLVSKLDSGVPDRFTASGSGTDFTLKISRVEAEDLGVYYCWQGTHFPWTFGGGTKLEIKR
# notes: as for B1
# B5: S009-F3.23.1 (antibody, human IgG1, kappa, V domains shown)
# VH: QVQLQQSGADLVRPGASVTLSCKASGYTFTDYEMHWVKQTPVHGLEWIGAIDPETGDTVYNQNFKGKAILTADKSSSTAYMELRSLTSEDSAVYYCTRYGYDWGWGQGTTLTVSS
# VL: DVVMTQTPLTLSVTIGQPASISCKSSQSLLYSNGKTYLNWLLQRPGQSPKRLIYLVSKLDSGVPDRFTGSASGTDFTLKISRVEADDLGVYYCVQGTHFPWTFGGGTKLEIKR
# notes: as for B1
# B6: S009-F3.38.10 (antibody, human IgG1, kappa, V domains shown)
# VH: EVQLQQSGPVLVKPGASVKMSCEASGYIFTDYYMNWVKKSHGKSLEWIGVINPKNGVISHNQKFKGKATLTVDKSSNTAYMELSSLTSEDSAVYYCANYGSRFYAMDYWGQGTSVTVSS
# VL: DVVMTQTPLSLPVSLGDQASISCRSSQSLIHSDGNTYLQWYLQKSGQSPKLLIYKVSNRFSGVPDRFSGSGSGTDFTLKISRVETEDLGVYFCSQTTHVPFTFGSGTKLEIKR
# notes: as for B1
# B7: S009-F3.7.3 (antibody, human IgG1, kappa, V domains shown)
# VH: EVNFEESGGGLVQPGGSMKLSCVASGFTFSNYWMNWVRQSPEKGLEWVAQIRLKSDNYATHYAESVKGRFTISRDDFKSSVYLQMNNLRAEDTGIYYCTVGTGGYWGQGTTLTVSS
# VL: DIVLTQSPASLAMSLGKRATISCRASESVSIVGTNVIHWFQQKPGQPPKLLIYHASNLETGVPARFSGSGSGTDFTLTIDPVEEDDVAIYHCLQSRKIPWTFGGGTKLEIKR
# notes: as for B1
# B8: S009-F3.16.1 (antibody, human IgG1, kappa, V domains shown)
# VH: B7 VH with N3K, T71S, F77S, T99S
# VL: B7 VL with M13L, L15P, V32I, N35D, G72R, H91Y
# notes: as for B1
# B9: F7.33.24 (scFv, not shown: small tags and cut ends)
# scFv: QVQLQQPGTELVKPGASVKLSCKASGYTFTSYWMHWVKQRPGQGLEWIGNVNPSNGGSNYNEKFKNKATLTVDKSSSTADMQLNSLTSEDSAVYYCAPHYIGSRPGFAYWGQGTLVTVSGGGGGSGGGGSGGGGSDIVMTQSQKFMSTSVGDRVSVTCKASQNVGTNIAWYQQKPGQSPKALIYSASYRYSGVPDRFTGSGSGTDFTLTITNVQSEDLAEYFCQQYNSYPLTFGGGTKVEIK
# notes: also called S009-F7.33.24 (parental variable regions, in the humanized-antibody ELISA)
# B10: F7.33.24-H11 (scFv, not shown: small tags and cut ends)
# scFv: EVQLVQSGAEVKKPGASVKVSCKASGYTFTSYWMHWVRQAPGQGLEWMGNVNPSNAGSNYNEKFKNRVTITVDKSASTAYMELSSLRSEDTAVYYCAPHYIGSRPGFAYWGQGTLVTVSSGGGGSGGGGSGGGGSDIVMTQTPLSLSVTPGQPASISCKASQNVGTNIAWYLQKPGQSPQALIYSASYRYSGVPDRFSGSGSGTDFTLKISRVEAEDVGVYYCQQYNSYPLTFGGGTKVEIK
# notes: also called S009-F7.33.24 humanized antibody VH2a + VL2
# B11: F7.33.24-H12 (scFv, not shown: small tags and cut ends)
# scFv: B10 scFv with L172Q
# notes: also called S009-F7.33.24 humanized antibody VH2a + VL3
# Target: T2, human MSLN protein endogenously expressed on OVCAR3 tumor cells (human, UniProt Q13421 296-598)
# T2 construct: whole, on cells; Endogenous target on OVCAR3 cells; kept apart from the recombinant full-length construct; also called mesothelin
# Test: FACS on OVCAR3 cells
# T2 sequence (Q13421 other isoform, or with tags, fused parts or gaps): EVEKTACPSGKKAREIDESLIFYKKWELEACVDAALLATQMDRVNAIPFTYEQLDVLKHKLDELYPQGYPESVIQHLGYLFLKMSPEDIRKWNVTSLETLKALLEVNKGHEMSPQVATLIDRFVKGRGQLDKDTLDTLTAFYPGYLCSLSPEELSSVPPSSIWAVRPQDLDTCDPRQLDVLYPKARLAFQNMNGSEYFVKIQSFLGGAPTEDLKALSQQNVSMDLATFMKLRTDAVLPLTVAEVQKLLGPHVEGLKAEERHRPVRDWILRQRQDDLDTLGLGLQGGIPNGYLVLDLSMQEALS
Maximum mean fluorescence intensity,EC50 [nM],Binder
613,,B1
227,,B2
9710,5.61,B3
337,,B4
288,,B5
2620,,B6
3700,1.94,B7
4190,1.61,B8

# Target: T3, human MSLN full-length protein (NCBI: AAH09272.1) expressed on HEK293T-hMSLN-B8 cells (human, UniProt Q13421 296-598)
# T3 construct: Whole encoded precursor
# Test: FACS on HEK293T-hMSLN-B8 cells
# T3 sequence (Q13421 other isoform, or with tags, fused parts or gaps limits assumed): as the sequence (Q13421 other isoform, or with tags, fused parts or gaps) above, with R14P counted along it
EC50 [nM],Maximum mean fluorescence intensity,Binder
8.68,36400,B1
,35400,B2
1.41,97600,B3
21.8,27900,B4
33.7,26400,B5
6.84,80600,B6
2.25,88800,B7
1.46,89800,B8

# Target: T4, human MSLN-R3 protein (Met487-Ser606 of NCBI AAH09272.1) expressed on HEK293T-hMSLN-R3 cells (human, UniProt Q13421 487-606)
# T4 construct: also called Region3
# Test: FACS on HEK293T-hMSLN-R3 cells
# T4 sequence (Q13421 495-614): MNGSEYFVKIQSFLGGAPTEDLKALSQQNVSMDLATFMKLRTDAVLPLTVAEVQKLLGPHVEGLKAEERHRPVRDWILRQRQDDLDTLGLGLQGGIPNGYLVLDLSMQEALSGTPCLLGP
EC50 [nM],Maximum mean fluorescence intensity,binding result,Binder
0.62,5070,,B1
1.18,8270,,B2
,81,no binding,B3
0.75,4470,,B4
0.84,4240,,B5
3.41,6770,,B6
0.72,7920,,B7
0.43,8060,,B8

# Target: T1, monkey MSLN full-length protein (NCBI: …)
# Test: FACS on HEK293T-monkey MSLN cells
Maximum mean fluorescence intensity,binding result,EC50 [nM],Binder
188,,,B1
105,no binding,,B2
41100,,0.56,B3
88,no binding,,B4
88,no binding,,B5
22300,,4.63,B6
7100,,,B7
24800,,1.4,B8

# Target: T5, human MSLN-hFc protein (Acro, Cat. No. MSN-H5253) (human, UniProt Q13421 296-580)
# T5 construct: the method names the coated protein as human MSLN-hFc (Acro); also called human MSLN full-length protein
# Test: ELISA on coated antigen, antibody 1 nM
# T5 sequence (Q13421 other isoform, or with tags, fused parts or gaps limits assumed): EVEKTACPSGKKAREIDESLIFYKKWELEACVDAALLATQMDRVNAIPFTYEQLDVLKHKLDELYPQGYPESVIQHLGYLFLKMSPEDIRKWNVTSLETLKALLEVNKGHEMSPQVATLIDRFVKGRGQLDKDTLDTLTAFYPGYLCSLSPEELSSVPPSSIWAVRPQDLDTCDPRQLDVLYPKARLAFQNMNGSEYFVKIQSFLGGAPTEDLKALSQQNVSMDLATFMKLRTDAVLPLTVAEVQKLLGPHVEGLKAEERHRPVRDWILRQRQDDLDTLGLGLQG
row,OD450 [OD450],Binder
1,0.27,B9
2,0.57,B10
3,0.58,B11

# Target: T6, human MSLN-R3 protein (human, UniProt Q13421 487-598)
# T6 construct: also called hMSLN-R3
# Test: ELISA on coated antigen, antibody 1 nM
# T6 sequence (Q13421 495-606, form in doubt): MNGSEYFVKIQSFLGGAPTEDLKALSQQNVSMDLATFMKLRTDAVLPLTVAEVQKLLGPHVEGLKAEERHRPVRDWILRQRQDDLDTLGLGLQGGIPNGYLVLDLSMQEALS
row,OD450 [OD450],Binder
1,0.71,B9
2,0.68,B10
3,0.65,B11

# Target: T5, human MSLN-hFc protein (Acro, Cat. No. …)
# Test: ELISA on coated antigen, antibody 10 nM
row,OD450 [OD450],Binder
1,1.63,B9
2,2.18,B10
3,2.28,B11

# Target: T6, human MSLN-R3 protein
# Test: ELISA on coated antigen, antibody 10 nM
row,OD450 [OD450],Binder
1,1.78,B9
2,1.94,B10
3,1.95,B11

# Target: T5, human MSLN-hFc protein (Acro, Cat. No. …)
# Test: ELISA on coated antigen, antibody 0.1 nM
row,OD450 [OD450],Binder
1,0.06,B9
2,0.09,B10
3,0.1,B11

# Target: T5, human MSLN-hFc protein (Acro, Cat. No. …)
# Test: ELISA on coated antigen, antibody 100 nM
row,OD450 [OD450],Binder
1,2.58,B9
2,2.65,B10
3,2.65,B11

# Target: T6, human MSLN-R3 protein
# Test: ELISA on coated antigen, antibody 0.1 nM
row,OD450 [OD450],Binder
1,0.09,B9
2,0.09,B10
3,0.09,B11

# Target: T6, human MSLN-R3 protein
# Test: ELISA on coated antigen, antibody 100 nM
row,OD450 [OD450],Binder
1,1.92,B9
2,2.1,B10
3,2.04,B11

# Target: T5, human MSLN-hFc protein (Acro, Cat. No. …)
# Test: ELISA on coated antigen, antibody 0.01 nM
row,OD450 [OD450],Binder
1,0.21,B9
2,0.04,B10
3,0.04,B11

# Target: T6, human MSLN-R3 protein
# Test: ELISA on coated antigen, antibody 0.01 nM
row,OD450 [OD450],Binder
1,0.04,B9
2,0.05,B10
3,0.04,B11

# Target: T5, human MSLN-hFc protein (Acro, Cat. No. …)
# Test: ELISA on coated antigen, antibody 0.001 nM
row,OD450 [OD450],Binder
1,0.26,B9
2,0.04,B10
3,0.04,B11

# Target: T6, human MSLN-R3 protein
# Test: ELISA on coated antigen, antibody 0.001 nM
row,OD450 [OD450],Binder
1,0.04,B9
2,0.04,B10
3,0.04,B11

# Target: T5, human MSLN-hFc protein (Acro, Cat. No. …)
# Test: ELISA on coated antigen, antibody 0.0001 nM
row,OD450 [OD450],Binder
1,0.04,B9
2,0.04,B10
3,0.05,B11

# Target: T6, human MSLN-R3 protein
# Test: ELISA on coated antigen, antibody 0.0001 nM
row,OD450 [OD450],Binder
1,0.04,B9
2,0.05,B10
3,0.04,B11
